According to patent publication US20190322750A1 (Y BIOLOGICS, published 2019):
Changes are numbered by the printed parent chain. Values belong to the binder of their own block, whether it stands above or below them.

Tests used:
M2 = test: ELISA on coated antigen, column M2
Experimental: (§1) An antigen PD-L1 wild type (WT) or several mutants were coated at a density of 100 ng/well on a 96-well immunoplate at 4° C. for 16 hours and the wells were blocked with 4% skim milk dissolved in PBS. Each well was washed with 0.2 ml of PBS/T, and then a single clone scFv-phage (each […]) cultured for 16 hours was added in a dose of 100 μl to each well and reacted at room temperature for 2 hours. Again, each well was washed 4 times with 0.2 ml of PBS/T, and then the second antibody, anti-Fab, was diluted to 1/2000 and reacted at room temperature for 1 hour. After washing with 0.2 ml of PBS/T, color development was performed and absorbance was measured at 490 nm.

M6 = test: ELISA on coated antigen, column M6
Experimental: as §1

mouse PD-L1 protein = mouse PD-L1 protein (mouse, UniProt Q9EP73 19-238, limits assumed); test: ELISA on coated antigen, column mPD-L1
Experimental: as §1

M1 = test: ELISA on coated antigen, column M1
Experimental: as §1

M3 = test: ELISA on coated antigen, column M3
M7 = test: ELISA on coated antigen, column M7
M8 = test: ELISA on coated antigen, column M8
Experimental: as §1

M4 = test: ELISA on coated antigen, column M4
Experimental: as §1

WT = target: T1, WT (human, UniProt Q9NZQ7); test: ELISA on coated antigen, column WT
T1 construct: recombinant; also called hPD-L1; antigen PD-L1 wild type (WT)
Experimental: as §1

ITGA6 = target: T2, ITGA6; test: ELISA on coated antigen, column ITGA6
T2 construct: unrelated antigen column; all antibodies give 0.5 to 0.6
T2 sequence (P23229 whole entry, species assumed, looked up): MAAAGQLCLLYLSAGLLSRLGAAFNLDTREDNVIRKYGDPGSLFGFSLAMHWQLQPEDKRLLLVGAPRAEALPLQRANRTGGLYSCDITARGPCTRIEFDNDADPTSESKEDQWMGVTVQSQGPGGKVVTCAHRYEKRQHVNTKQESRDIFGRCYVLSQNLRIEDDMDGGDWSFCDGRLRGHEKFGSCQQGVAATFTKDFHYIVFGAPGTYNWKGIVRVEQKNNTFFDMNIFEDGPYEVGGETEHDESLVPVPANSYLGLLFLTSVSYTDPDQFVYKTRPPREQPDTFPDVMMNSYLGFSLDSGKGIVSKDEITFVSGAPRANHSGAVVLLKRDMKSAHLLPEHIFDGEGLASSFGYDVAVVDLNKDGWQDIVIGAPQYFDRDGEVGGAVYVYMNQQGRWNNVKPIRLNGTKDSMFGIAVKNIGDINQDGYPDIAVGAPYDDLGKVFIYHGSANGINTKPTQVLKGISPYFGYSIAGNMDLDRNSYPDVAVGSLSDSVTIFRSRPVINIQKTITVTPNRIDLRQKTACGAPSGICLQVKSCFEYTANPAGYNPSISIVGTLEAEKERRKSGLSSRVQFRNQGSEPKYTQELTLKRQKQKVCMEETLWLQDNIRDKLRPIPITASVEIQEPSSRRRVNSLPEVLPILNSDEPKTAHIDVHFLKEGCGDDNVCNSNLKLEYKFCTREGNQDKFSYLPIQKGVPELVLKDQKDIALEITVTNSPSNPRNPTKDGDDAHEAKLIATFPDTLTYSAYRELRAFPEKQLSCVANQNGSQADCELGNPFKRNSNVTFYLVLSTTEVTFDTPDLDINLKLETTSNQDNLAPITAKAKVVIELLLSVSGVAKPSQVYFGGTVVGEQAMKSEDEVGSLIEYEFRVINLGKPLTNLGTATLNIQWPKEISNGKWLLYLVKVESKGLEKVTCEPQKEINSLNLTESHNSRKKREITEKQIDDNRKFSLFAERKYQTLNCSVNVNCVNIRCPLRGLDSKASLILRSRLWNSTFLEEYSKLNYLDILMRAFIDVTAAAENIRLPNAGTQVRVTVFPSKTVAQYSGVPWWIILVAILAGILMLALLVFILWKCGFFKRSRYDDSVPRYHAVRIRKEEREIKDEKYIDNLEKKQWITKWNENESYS

M5 = test: ELISA on coated antigen, column M5
Experimental: as §1

[1] = target: T3, human PD-L1 over-expressed on HEK293E cells (human, UniProt Q9NZQ7 19-290); test: flow cytometry on HEK293E/PD-L1 cells, FITC anti-human IgG, serial dilutions; fit table
T3 construct: whole, on cells; also called human PD-L1 (NM_014143.2)
Experimental: 0.5 to 1×10⁶ cells per sample were prepared from the transformation cell pools highly expressing human PD-L1, and antibodies were serially diluted at a constant dilution rate and reacted with the prepared cells at 4° C. for 20 minutes. Then, the cells were washed three times with PBS (#LB001-02, Welgene) containing 2% fetal bovine serum and reacted at 4° C. for 20 minutes with an anti-human IgG antibody (#FI-3000, Vectorlabs) conjugated with a FITC (fluorescein isothiocyanate) fluorescent substance. Then, the cells were subjected to the same washing process as above and then suspended in 0.5 ml of PBS containing 2% FBS (#26140-079, Thermo Fisher) with an FACSCanto II flow cytometer (BD Biosciences, USA) as a flow cytometer (Table 11).

PD-L1-hFc = target: T4, PD-L1-hFc (human, UniProt Q9NZQ7 19-238); test: kinetics on PD-L1-hFc (legend paragraph 40; text names ProteOn XPR36, the sheet's sensorgrams have a nm axis)
T4 construct: extracellular domain; Made in HEK-293F cells, protein A purified; also called PD-L1 antigen; PD-L1 protein

[2] = target: T5, PD-L1 on CHO cell line highly expressing PD-L1 (PD-1/PD-L1 blockade bioassay kit, promega J1250) (UniProt Q9NZQ7 19-290, limits assumed); test: cell-based or functional assay
[3] = target: T5, PD-L1 on CHO cell line highly …; test: cell-based or functional assay; remark: listed apart in the source

mouse PD-L1 protein, sequence (Q9EP73 19-238 limits assumed): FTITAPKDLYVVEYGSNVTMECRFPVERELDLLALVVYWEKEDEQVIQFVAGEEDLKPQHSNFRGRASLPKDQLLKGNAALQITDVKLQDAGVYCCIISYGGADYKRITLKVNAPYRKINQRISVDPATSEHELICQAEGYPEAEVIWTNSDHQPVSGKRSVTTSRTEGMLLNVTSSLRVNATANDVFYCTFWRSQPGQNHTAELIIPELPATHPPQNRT
T5 sequence (Q9NZQ7 19-290 limits assumed): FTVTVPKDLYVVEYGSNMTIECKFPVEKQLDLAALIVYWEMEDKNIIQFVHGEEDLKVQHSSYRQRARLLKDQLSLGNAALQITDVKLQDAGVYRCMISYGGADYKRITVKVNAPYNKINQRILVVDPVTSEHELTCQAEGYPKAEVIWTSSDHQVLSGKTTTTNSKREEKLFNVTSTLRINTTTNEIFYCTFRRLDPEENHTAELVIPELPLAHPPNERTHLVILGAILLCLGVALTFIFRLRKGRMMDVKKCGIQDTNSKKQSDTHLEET
T3 sequence (Q9NZQ7 19-290): as the sequence (Q9NZQ7 19-290 limits assumed) above
T4 sequence (Q9NZQ7 other isoform, or with tags, fused parts or gaps limits assumed): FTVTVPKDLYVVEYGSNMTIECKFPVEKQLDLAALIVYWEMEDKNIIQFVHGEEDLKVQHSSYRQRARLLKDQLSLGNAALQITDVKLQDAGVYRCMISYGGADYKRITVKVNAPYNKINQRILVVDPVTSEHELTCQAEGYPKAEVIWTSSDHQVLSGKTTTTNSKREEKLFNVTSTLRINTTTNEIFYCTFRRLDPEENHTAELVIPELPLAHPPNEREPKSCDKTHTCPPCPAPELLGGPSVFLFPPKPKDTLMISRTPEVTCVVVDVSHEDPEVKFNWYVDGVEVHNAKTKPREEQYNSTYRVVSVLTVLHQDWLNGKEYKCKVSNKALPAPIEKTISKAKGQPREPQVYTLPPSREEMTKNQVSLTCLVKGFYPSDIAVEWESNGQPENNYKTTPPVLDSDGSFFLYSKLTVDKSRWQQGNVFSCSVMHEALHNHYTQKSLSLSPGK
T1 sequence (Q9NZQ7 19-238 limits assumed): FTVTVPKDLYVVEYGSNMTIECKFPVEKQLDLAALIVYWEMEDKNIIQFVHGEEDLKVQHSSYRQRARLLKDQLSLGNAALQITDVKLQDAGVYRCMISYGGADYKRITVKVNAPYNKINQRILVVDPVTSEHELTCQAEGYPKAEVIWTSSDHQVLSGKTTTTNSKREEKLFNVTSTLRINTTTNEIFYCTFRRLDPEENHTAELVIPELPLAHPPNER

absorbance at 490 nm (M2): 2.1 | absorbance at 490 nm (M6): 2.2 | absorbance at 490 nm (mouse PD-L1 protein): 0.3 | binding result (mouse PD-L1 protein): no binding | absorbance at 490 nm (M1): 2.1 | absorbance at 490 nm (M3): 0.7 | absorbance at 490 nm (M7): 2.3 | absorbance at 490 nm (M8): 1 | absorbance at 490 nm (M4): 0.5 | absorbance at 490 nm (WT): 2.2 | absorbance at 490 nm (ITGA6): 0.5 | absorbance at 490 nm (M5): 2.2
B1: PDL1-23E10 (scFv, V domains shown)
VH: QMQLVESGAEVKKPGSSVKVSCKVSGENFRSHAISWVRQAPGQGLEWMGRIIPIVGLADYPQKFQGRVTISADESTGTAYMDLSSLRSEDTAVYYCVTGRPPWHWGQGILITVSS
VL: QLVLTQPPSVSGAPGQRVTISCTGSSSNIGAGYDVHWYQQLPGTAPKLLIYSNRNRPSGVPDRFSGSKSGTSASLAITGLQAEDEADYYCQSYDSSLSGPNYVFGTGTKVTVL

absorbance at 490 nm (M2): 2.5 | absorbance at 490 nm (M6): 2.6 | absorbance at 490 nm (mouse PD-L1 protein): 0.1 | binding result (mouse PD-L1 protein): no binding | absorbance at 490 nm (M1): 2.6 | absorbance at 490 nm (M3): 2.8 | absorbance at 490 nm (M7): 2.7 | absorbance at 490 nm (M8): 2.7 | absorbance at 490 nm (M4): 2.6 | absorbance at 490 nm (ITGA6): 0.6 | absorbance at 490 nm (M5): 2.6
B7: PDL1-30B1 (antibody, V domains shown)
VH: QVQLVESGGGVVQPGRSLRLSCAASGFTFSSYAMHWVRQGPGKGLEWVAVISYDGSNEFYADSVKGRFTISRDNSKNTLYLQMNSLRAEDTAVYYCARGDYNGVYMDVWGQGTTVTVSS
VL: DIVMTQTPLSLSVTPGQPASISCKSSQSLLHSDGKTYLYWYLQKPGQSPQLLIYEVSKRFSGVPDRFSGSGSGTDFTLKIGRVEAEDVGVYYCMQGLHLPYTFGQGTKLEIK
notes: Only FR/CDR pieces are tied to the clone

absorbance at 490 nm (M2): 2.3 | absorbance at 490 nm (M6): 2.5 | absorbance at 490 nm (mouse PD-L1 protein): 0.2 | binding result (mouse PD-L1 protein): no binding | absorbance at 490 nm (M1): 2.3 | absorbance at 490 nm (M3): 1 | absorbance at 490 nm (M7): 2.5 | absorbance at 490 nm (M8): 2.6 | absorbance at 490 nm (M4): 0.4 | absorbance at 490 nm (WT): 2.5 | absorbance at 490 nm (ITGA6): 0.5 | absorbance at 490 nm (M5): 2.5
B8: PDL1-22B10 (antibody, V domains shown)
VH: QVQLVQSGAEVKKPGSSVKVSCRASGGTFSSYAISWVRQAPGQGLEWMGRIIPILGIANYAQKFQGRVTITADKSTSTAYMELSSLRSEDTAVYYCARDFVLSGSATVFDPWGQGTLVTVSS
VL: QFVLTQPPSVSGAPGQRVTISCTGSSTNIGAGYDVHWYQQLPGKAPKVVIYGNSNRPSGVLDRFSASKSATSASLAITGLQAEDEADYYCQSYDSSLSGYVFGTGTKVTVL
notes: as for B7

Continued, binder first:

B2: PDL1-16E12 (LS/4H5) (antibody, V domains shown)
VH: QMQLVQSGAEVKKPGSSVKVSCKASGGTFSSYAISWVRQAPGQGLEWMGRIIPILGIANYAQKFQGRVTITADKSTSTAYMELSSLRSEDTAVYYCAKPRDGYNLVAFDIWGQGTMVTVSS
VL: QLVLTQPPSVSGAPGQRVTISCTGSSSNIGAGYDVHWYQQLPGTAPKLLIYGNSNRPSGVPDRFSGSKSGTSASLAITGLQAEDEADYYCQSYDSSLSGGVFGGGTKLTVL
notes: also called PD-L1-16E12-4H5
Bmax [1]: 4020 | Kd [1]: 1930 pM | Kd (PD-L1-hFc): < 1 pM | koff (PD-L1-hFc): < 1e-07 s⁻¹ | kon (PD-L1-hFc): 226000 M⁻¹ s⁻¹ | EC50 (first run) [2]: 0.43 nM | EC50 (second run) [2]: 0.26 nM | Average *EC50 [nM], PD-1/PD-L1 blockade bioassay [3]: 0.33 nM

B3: PDL1-16E12 (LS/4C9) (antibody, V domains shown)
VH: B2 VH
VL: QLVLTQPPSVSGAPGQRVTISCTGGSSNIGAGYDVHWYQQLPGTAPKLLLFGNTNRPSGVPGRFSGSKSGSSASLAITGLQSDDEADYYCQSYDSSLGGSVIGTGTKVTVL
notes: also called PD-L1-16E12-4C9
Bmax [1]: 4400 | Kd [1]: 2420 pM | Kd (PD-L1-hFc): 15.8 pM | koff (PD-L1-hFc): 2.62e-06 s⁻¹ | kon (PD-L1-hFc): 166000 M⁻¹ s⁻¹ | EC50 (first run) [2]: 0.4 nM | EC50 (second run) [2]: 0.4 nM | Average *EC50 [nM], PD-1/PD-L1 blockade bioassay [3]: 0.39 nM

B4: PDL1-16E12 (LS/4A7) (antibody, V domains shown)
VH: B2 VH
VL: QLVLTQPPSVSGAPGQRVTISCTGSSSNIGAGYDVHWYQSLPGTVPKLLISGNSNRPPGVPDRFSGSKSGTSASLAITSLQSEDEADYYCHSYDGSLSEGVFGTGTKVTVL
notes: also called PD-L1-16E12-4A7
Bmax [1]: 4260 | Kd [1]: 3920 pM | Kd (PD-L1-hFc): 39.6 pM | kon (PD-L1-hFc): 161000 M⁻¹ s⁻¹ | EC50 (first run) [2]: 0.38 nM | EC50 (second run) [2]: 0.4 nM | Average *EC50 [nM], PD-1/PD-L1 blockade bioassay [3]: 0.37 nM

B5: PDL1-16E12 (LS/4A11) (antibody, V domains shown)
VH: B2 VH
VL: B2 VL with T19I, L41V, S54N, N55H, A86T, S95N, S96R, G100S, V101L
notes: also called PD-L1-16E12-4A11
Bmax [1]: 4230 | Kd [1]: 2570 pM | Kd (PD-L1-hFc): 79.8 pM | koff (PD-L1-hFc): 1.28e-05 s⁻¹ | kon (PD-L1-hFc): 160000 M⁻¹ s⁻¹ | EC50 (first run) [2]: 0.37 nM | EC50 (second run) [2]: 0.36 nM | Average *EC50 [nM], PD-1/PD-L1 blockade bioassay [3]: 0.34 nM

B6: PDL1-16E12 (LS/4H8) (antibody, V domains shown)
VH: B2 VH
VL: QLVLTQPSSVSGAPGQRVTISCTGSSSNIGAGYDVHWYQQLPGTAPKLLIYGNSNRPSGVPDRFSGSKSGTSASLAITGLQAEDEADYYCQSYDSSLSGSGVFGTGTKVTVL
notes: also called PD-L1-16E12-4H8
Bmax [1]: 3990 | Kd [1]: 1980 pM | Kd (PD-L1-hFc): < 1 pM | koff (PD-L1-hFc): < 1e-07 s⁻¹ | kon (PD-L1-hFc): 240000 M⁻¹ s⁻¹ | EC50 (first run) [2]: 0.43 nM | EC50 (second run) [2]: 0.31 nM | Average *EC50 [nM], PD-1/PD-L1 blockade bioassay [3]: 0.36 nM
